Data from the supplement of paper PMC10567573.

B1: PDZK1 (parent)
chain: FQAKKIPIVSSLADPLDTPPDSKE
B2: ZNF511 (parent)
chain: YEHHYHTLHGNVCSFCKRAFPSGH

Variants of: B1
Assay: protein stability index of a GFP-peptide fusion (GPS, HEK-293T) (PSI 1-6); higher = more stable
Details: c terminus: a fixed tail appended
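Also: lentivirally expressed fusions sorted by FACS into six bins by GFP to DsRed ratio, PSI derived from sequencing read proportions per bin multiplied by bin number.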

Variant | protein stability index
FQAKKIPIVSSLADPYDTPPDSKE [L16Y] | 3.47
FQAKKIPIVSSLADPIDTPPDSKE [L16I] | 3.91
FQAKKIPIVSSLADPGDTPPDSKE [L16G] | 3.85
FQAKKIPIVSSLADPEDTPPDSKE [L16E] | 4.07
FQAKKIPIVSSLALPLDTPPDSKE [D14L] | 3.5
FQAKKIPIVSSLADPLDTPTDSKE [P20T] | 3.58
FQAKKIPIVSSLADPLDTPFDSKE [P20F] | 3.17
FQAKKIPIVSSLADPLDTPNDSKE [P20N] | 3.7
FQAKKIPIVSSLADPLDTPHDSKE [P20H] | 3.53
FQAKKIPIVSSLADPLDTPEDSKE [P20E] | 4.21
FQAKKIPIVSSLADPLDTPRDSKE [P20R] | 3.77
FQAKKIPIVSSLADPLDFPPDSKE [T18F] | 3.55
FQAKKIPIVSSLADPLDGPPDSKE [T18G] | 3.62
FQAKKIPIVSSLADPLDYPPDSKE [T18Y] | 3.33
FQAKKIPIVSSLADPLDIPPDSKE [T18I] | 3.75
FQAKKIPIVSSLADCLDTPPDSKE [P15C] | 3.55
FQAKKIPIVSSLADYLDTPPDSKE [P15Y] | 3.32
FQAKKIPIVSSLADHLDTPPDSKE [P15H] | 3.85
FQAKKIPIVSSLADNLDTPPDSKE [P15N] | 3.64
FQAKKIPIVSSLADKLDTPPDSKE [P15K] | 3.25
FQAKKIPIVSSLADRLDTPPDSKE [P15R] | 3.73
FQAKKIPIVSSLADWLDTPPDSKE [P15W] | 2.45
FQAKKIPIVSSLADPLLTPPDSKE [D17L] | 3.28
FQAKKIPIVSSLADPLDTIPDSKE [P19I] | 3.55
FQAKKIPIVSSLADPLDTCPDSKE [P19C] | 3.53
FQAKKIPIVSSLADPLDTLPDSKE [P19L] | 3.2
FQAKKIPIVSSLADPLDTEPDSKE [P19E] | 3.35
FQAKKIPIVSSLADPLDTMPDSKE [P19M] | 3.72
FQAKKIPIVSSLADPLDTHPDSKE [P19H] | 4.01
FQAKKIPIVSSLADPLDTYPDSKE [P19Y] | 3.81

Variants of: B2
Assay: as above
Details: c terminus: a fixed tail appended

Variant | protein stability index
REHHYHTLHGNVCSFCKRAFPSGH [Y1R] | 2.22
CEHHYHTLHGNVCSFCKRAFPSGH [Y1C] | 4.05
HEHHYHTLHGNVCSFCKRAFPSGH [Y1H] | 2.81
FEHHYHTLHGNVCSFCKRAFPSGH [Y1F] | 2.72
AEHHYHTLHGNVCSFCKRAFPSGH [Y1A] | 3.02
KEHHYHTLHGNVCSFCKRAFPSGH [Y1K] | 3.02
IEHHYHTLHGNVCSFCKRAFPSGH [Y1I] | 2.89
GEHHYHTLHGNVCSFCKRAFPSGH [Y1G] | 2.99
DEHHYHTLHGNVCSFCKRAFPSGH [Y1D] | 3.67
WEHHYHTLHGNVCSFCKRAFPSGH [Y1W] | 2.07
VEHHYHTLHGNVCSFCKRAFPSGH [Y1V] | 2.51
MEHHYHTLHGNVCSFCKRAFPSGH [Y1M] | 2.63
PEHHYHTLHGNVCSFCKRAFPSGH [Y1P] | 2.98
LEHHYHTLHGNVCSFCKRAFPSGH [Y1L] | 2.75
EEHHYHTLHGNVCSFCKRAFPSGH [Y1E] | 3
NEHHYHTLHGNVCSFCKRAFPSGH [Y1N] | 3.38
SEHHYHTLHGNVCSFCKRAFPSGH [Y1S] | 3.29
QEHHYHTLHGNVCSFCKRAFPSGH [Y1Q] | 3.62
TEHHYHTLHGNVCSFCKRAFPSGH [Y1T] | 2.75
YEHHDHTLHGNVCSFCKRAFPSGH [Y5D] | 3.51
YEHHPHTLHGNVCSFCKRAFPSGH [Y5P] | 3.04
YEHHHHTLHGNVCSFCKRAFPSGH [Y5H] | 3.22

Variant | protein stability index
YEHHCHTLHGNVCSFCKRAFPSGH [Y5C] | 3.95
YEHHKHTLHGNVCSFCKRAFPSGH [Y5K] | 2.54
YEHHQHTLHGNVCSFCKRAFPSGH [Y5Q] | 3.28
YEHHMHTLHGNVCSFCKRAFPSGH [Y5M] | 2.39
YEHHVHTLHGNVCSFCKRAFPSGH [Y5V] | 3.47
YEHHNHTLHGNVCSFCKRAFPSGH [Y5N] | 3.01
YEHHRHTLHGNVCSFCKRAFPSGH [Y5R] | 2.62
YEHHTHTLHGNVCSFCKRAFPSGH [Y5T] | 3.67
YEHHGHTLHGNVCSFCKRAFPSGH [Y5G] | 3.54
YEHHEHTLHGNVCSFCKRAFPSGH [Y5E] | 3.85
YEHHIHTLHGNVCSFCKRAFPSGH [Y5I] | 2.68
YEHHSHTLHGNVCSFCKRAFPSGH [Y5S] | 3.01
YEHHLHTLHGNVCSFCKRAFPSGH [Y5L] | 2.48
YEHHWHTLHGNVCSFCKRAFPSGH [Y5W] | 2.32
YEHHFHTLHGNVCSFCKRAFPSGH [Y5F] | 2.29
YEHHAHTLHGNVCSFCKRAFPSGH [Y5A] | 2.81
YEHCYHTLHGNVCSFCKRAFPSGH [H4C] | 3.26
YEHMYHTLHGNVCSFCKRAFPSGH [H4M] | 2.52
YEHVYHTLHGNVCSFCKRAFPSGH [H4V] | 1.91
YEHLYHTLHGNVCSFCKRAFPSGH [H4L] | 2.07
YEHKYHTLHGNVCSFCKRAFPSGH [H4K] | 2.03
YEHPYHTLHGNVCSFCKRAFPSGH [H4P] | 2.38

Variant | protein stability index
YEHQYHTLHGNVCSFCKRAFPSGH [H4Q] | 2.1
YEHIYHTLHGNVCSFCKRAFPSGH [H4I] | 1.82
YEHSYHTLHGNVCSFCKRAFPSGH [H4S] | 2.43
YEHRYHTLHGNVCSFCKRAFPSGH [H4R] | 1.73
YEHWYHTLHGNVCSFCKRAFPSGH [H4W] | 1.73
YEHTYHTLHGNVCSFCKRAFPSGH [H4T] | 1.95
YEHFYHTLHGNVCSFCKRAFPSGH [H4F] | 1.33
YEHGYHTLHGNVCSFCKRAFPSGH [H4G] | 2.05
YEHEYHTLHGNVCSFCKRAFPSGH [H4E] | 2.7
YEHAYHTLHGNVCSFCKRAFPSGH [H4A] | 1.75
YEHYYHTLHGNVCSFCKRAFPSGH [H4Y] | 1.93
YEHDYHTLHGNVCSFCKRAFPSGH [H4D] | 2.17
YEHNYHTLHGNVCSFCKRAFPSGH [H4N] | 2.23
YWHHYHTLHGNVCSFCKRAFPSGH [E2W] | 2.85
YVHHYHTLHGNVCSFCKRAFPSGH [E2V] | 2.89
YDHHYHTLHGNVCSFCKRAFPSGH [E2D] | 2.9
YGHHYHTLHGNVCSFCKRAFPSGH [E2G] | 2.9
YIHHYHTLHGNVCSFCKRAFPSGH [E2I] | 2.34
YAHHYHTLHGNVCSFCKRAFPSGH [E2A] | 3.31
YKHHYHTLHGNVCSFCKRAFPSGH [E2K] | 1.76
